# Results taken from the DeepSol protein solubility set.
# Assay: soluble on expression in E. coli; label from the status in PepcDB or PDB records
row,Sequence,soluble on expression in E. coli
1,MNLDQAEITALTKRFETPFYLYDGDFIEAHYRQLRSRTNPAIQFYLSLKANNNIHLAKLFRQWGLGVEVASAGELALARHAGFSAENIIFSGPGKKRSELEIAVQSGIYCIIAESVEELFYIEELAEKENKTARVAIRINPDKSFGSTAIKMGGVPRQFGMDESMLDAVMDAVRSLQFTKFIGIHVYTGTQNLNTDSIIESMKYTVDLGRNIYERYGIVCECINLGGGFGVPYFSHEKALDIGKITRTVSDYVQEARDTRFPQTTFIIESGRYLLAQAAVYVTEVLYRKASKGEVFVIVDGGMHHHAASTFRGRSMRSNYPMEYIPVREDSGRRELEKVTIAGPLCTPEDCLGKDVHVPALYPGDLVCVLNSGAYGLSFSPVHFLGHPTPIEILKRNGSYELIRRKGTADDIVATQLQTESNLLFVDK,soluble
2,MELGKQRPVVYVVSDSVGETAELVVKAAASQFSGAGIEVRRIPYVEDKETVDEVIQLAKQADAIIAFTLVVPGIRTYLLEKATEAKVETVDIIGPMLEKISSLTKEEPRYEPGIVYRLDEDYFRKVEAIEFAVKYDDGRDPRGIVRADLVLIGVSRTSKTPLSQYLAHKRLKVANVPLVPEVEPPEELFKLSPKKVIGLKISPEQLNGIRAERLKTLGLKSQANYANIDRIKEELAYAEGIMKRIGCPVIDVSNKAVEETANLISSMFQKMAGDPLEHHHHHH,soluble
3,MPPKKDPKGGKAPPSKKKEGSGGGKAKKKKWSKGKVRDKLNNMVLFDQATYDKLYKEVITYKLITPSVVSERLKVRASLAKAGLKELQAKGLVKCVVHHHGQVVYTRATKEADVIVE,soluble
4,MTGFKVSSFFYILALSRFFNAGRERACDKLKITVTHLYWFIIRKLLLHEVHVHVSRVCNVSFILSPCLFRNFFTLSLHVLYVMYEQALTPEFFRQWWDIIQSK,soluble
5,MSLTELTGNPRHDQLLMLIAERGYMNIDELANLLDVSTQTVRRDIRKLSEQGLITRHHGGAGRASSVVNTAFEQREVSQTEKKKAIAEAVADYIPDGSTIFITIGTTVEHVARALLNHNHLRIITNSLRVAHILYHNPRFEVMVPGGTLRSHNSGIIGPSAASFVADFRADYLVTSVGAIESDGALMEFDVNEANVVKTMMAHARNILLVADHTKYHASAAVEIGNVAQVTALFTDELPPAALKSRLQDSQIEIILPQEDALEHHHHHH,soluble
6,MASFVEMRKLAEAKVQNMIRTIVKPKEQNGNVEPKKEEDEKFESTYKQNENTQITPSSFGKRPLYSKVDINCDKWLMTLDEESRLKIDNPPSLVDGLSKETESELRYLGCELIQQGAILLKLPQTAAATGQILFQRYYYQKSFVRYHFEHAVQACLLLASKIEEEPRRPREVYNVFHRLERLHRLQQSGHDINKRLEAKHGSSILRCFG,not soluble
7,MKAVTFPVPWEYLKRIFEGKNVFVKPATLRVEEGMKVIFYASRENQGWHGEAEVERVEYYTSVEEIIKKYRDKLFLTPEELRRYERDRARWDSGRRKRPWMVLVLRNIEKYPRVVKPKKFIVVSGRYVDEKEYEEIRRSTSLEHHHHHH,soluble
8,MPAENSVEVHRLRKSVGQGEHELSILTGVELVVKRGETIALIGESGSGKSTLLAILAGLDDGSSGEVSLVGKPLHQMDEEARAQLRAQHVGFVFQSFMLIPTLNALENVELPALLRGENSGQSKAGAKALLEQLGLGKRLDHLPAQLSGGEQQRVALARAFNGRPDVLFADEPTGNLDRQTGDKIADLLFSLNREHGTTLILVTHDPALAARCDRRLRLVNGQLQEEA,not soluble
9,MVTPREPKKRTTRKKKDPNAPKRALSAYMFFANENRDIVRSENPDITFGQVGKKLGEKWKALTPEEKQPYEAKAQADKKRYESEKELYNATLA,soluble
10,MAHHHHHHMARHSSTPLSSSVCVRRKTMSSCRTSSFTHTSSRTLARVQRRFSRETTAPRAVLVTLQDARTNPRNAVRRLDDIHIPSLNQRLSSRLQNSSSQSNRDAIRSPSDANCTAQPNSDNANLATAVLSTKTSATQDAKFLLMPSISVSARAPDTAMADASCNTAPSASS,not soluble
11,MKIGVDAGGTLIKIVQEKNGERTYSTRLTTEIEEVIQWLNQQDCNNINLTGGQAAMINEQLNCESRVFVEFDAAAKGLEILLEEQGHFLDDYIFTNVGTGTSLHFSNGKAQKRVGGIGTGGGMIQGLGYLLTGISNYKQLTDTAQNGNRDIIDLKVKHIYKDSEPPISGDLTAANFGNVLHHLDESFTDADKLASVIAVVGEVITTMSITVAREHNTKNVAYIGSSFHNNDLLKDVVKDYTVLRGCEPYYIEHGAFSGALGSIHLLEHHHHHH,not soluble
12,GPGSMIKIHTEKDFIKMRAAGKLAAETLDFITDHVKPNVTTNSLNDLCHNFITSHNAIPAPLNYKGFPKSICTSINHVVCHGIPNDKPLKNGDIVNIDVTVILDGWYGDTSRMYYVGDVAIKPKRLIQVTYDAMMKGIEVVRPGAKLGDIGYAIQSYAEKHNYSVVRDYTGHGIGRVFHDKPSILNYGRNGTGLTLKEGMFFTVEPMINAGNYDTILSKLDGWTVTTRDKSLSAQFEHTIGVTKDGFEIFTLSPKKLDYPPY,soluble
13,MPLCLKINKKHGEQTRRILIENNLLNKDYKITSEGNYLYLPIKDVDEDILKSILNIEFELVDKELEEKKIIKKPSFREIISKKYRKEIDEGLISLSYDVVGDLVILQISDEVDEKIRKEIGELAYKLIPCKGVFRRKSEVKGEFRVRELEHLAGENRTLTIHKENGYRLWVDIAKVYFSPRLGGERARIMKKVSLNDVVVDMFAGVGPFSIACKNAKKIYAIDINPHAIELLKKNIKLNKLEHKIIPILSDVREVDVKGNRVIMNLPKFAHKFIDKALDIVEEGGVIHYYTIGKDFDKAIKLFEKKCDCEVLEKRIVKSYAPREYILALDFKINKK,soluble
14,MKLSESRGETEKHRRQQHFEHELKNMISSLTHMGGDKAGPSQYDEEEDGIRVITLSGSNLGATMKTELDNNHGDRDQNGDHELDFLSTYVNSNFQAVNNSIMIGAKYETHDPGVHLDISGDVEKPSVKIPARSSRGKKGKTPARSDRRESEHTN,soluble
15,MNRICELLGIEHPIISGGMVWCSGWKLASAVSNCGGLGLIGAGSMHPDNLEHHIRSCKAATDKPFGVNVPLLYPEMDKIMEIIMREHVPVVVTSAGSPKVWTAKLKAAGSKVIHV,not soluble
16,MGFTTVAKEEKVTKVAEVFHSVAAKYDIMNDLMSGGIHRLWKRFTIDCSGARPGQRILDLGGGTGDLTAKFSRIVGDQGHVVLADINNSMLNVGRDKLRDNGIVGNVHYVQANAEELPFPDDYFDVITISFCLRNVTDKDKALRSMFRVLKPGGRLLVLEFSKPVLEPLSKVYDAYSFHLLPKMGELVANDAESYRYLAESIRMHPDQETLEGMMQDAGFENTKYYNLTGGIVALHRGLEHHHHHH,not soluble
17,MGSDKIHHHHHHMMSGHNKWANIKHRKMAQDAKKSKIFTKLIREIIVAAREGGGNIETNPRLRAAVERARAENMPKENIERAIKRGTGELEGVDYQEVIYEGYAPGGVAVYIRALTDNKNRTAQELRHLFNKYGGSLAESGSVSWIFERKGVIEISRDKVKDLEELMMIAIDAGAEDIKDAEDPIQIITAPENLSEVKSKLEEAGYEVEAKVTFIPKNTVKVTGKDAEKVLEFLNALEDMDDVQEVYSNFEMDDKEMEEILSRLEG,not soluble
18,KWFRIDHVQEAHDAGVAVEDLFTRQIKVNHVVTGSDLVIDIHHTLGLEIIVSRIERDGQQTLPTASSRIHMGDVLSVVGTAEELDKAAHVLGDLLPGDPFHGHDLDYRRIFVSNQDLVGIPLAKLRPRLSGILITRVRRGDHDHVATPETVLQLGDRVRVVAAHDRMKSVTALFGDSYRRLSD,not soluble
19,MGSDKIHHHHHHMNRQVIEFSKYNPSGNMTILVHSKHDASEYASIANQLMAATHVCCEQVGFIESTQNDDGNDFHLVMSGNEFCGNATMSYIHHLQESHLLKDQQFKVKVSGCSDLVQCAIHDCQYYEVQMPQAHRVVPTTINMGNHSWKALEIIYETYVHYVIPVKQVTTEIQHLVEAFVREQQWSHKYKTVGMMLFDEQRQFLQPLIYIPEIQSLIWENSCGSGTASIGVFNNYQRNDACKDFTVHQPGGSILVTSKRCHQLGYQTSIKGQVTTVATGKAYIE,not soluble
